Consider one molecule from US20190031762A1, “POSTERIOR OCULAR FIBROSIS INHIBITION BY ANTAGONIZING PLACENTAL GROWTH FACTOR” (THROMBOGENICS NV, priority 2016, published 2019).

One assay addresses T1, murine PlGF (Mus musculus, UniProt P49764).
T1 sequence (P49764 19-158): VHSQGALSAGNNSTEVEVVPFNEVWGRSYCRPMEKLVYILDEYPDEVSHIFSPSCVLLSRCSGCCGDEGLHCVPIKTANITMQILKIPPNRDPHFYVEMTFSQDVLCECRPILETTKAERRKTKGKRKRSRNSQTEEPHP
Put plainly: Binding of antibody to murine PlGF.

The next assay has as its system mouse CNV model. Put plainly: Posterior ocular collagen deposition (Col1a staining) in laser-induced CNV mouse model. The conditions noted are these: repeat experiment (FIG. 4), day 30, 3.1 μg/eye, compared to PBS. The format is in vivo. The method, then:
Mice (C57BL/6J, male, 8-10 weeks old) were anesthetized by intraperitoneal injection (135 μL) of a mixture of ketamine hydrochloride (Anesketin; […]) and medetomidine (Domitor; 1 mg/mL) and their pupils dilated with one eye drop (50 μL) Tropicamide (Tropicol™; 5 mg/mL; Thea, Research Papers Clermont-Ferrand, France). Three laser burns were placed in one eye with a green laser at the 9, 12, 3 o'clock positions around the optic disk using a slit lamp delivery system with a hand-held cover slide as a contact lens moisturized with Genteal Gel™ (Novartis, Vilvoorde, Belgium). Each spot was placed with a spot size of 100 μm, laser duration of a 50 milliseconds and a power of 320 mW. […] Finally, 300 μL atipamezole (Antisedan; 5 mg/mL) was injected intraperitoneally to reverse the effect of medetomidine and to reduce sedation time.
At different time points after lasering, the compounds were administered intravitreally (IVT). The animal was anesthetized with a mixture of ketamine hydrochloride/medetomidine and the eye was treated with a drop of 0.4% oxybuprocaine (Unicaine; Thea Pharma). Intravitreal injections (1 μL) to one eye according to Tables 1 to 3 were performed by using an analytic science syringe (SGE Analytic Science) and glass capillaries with a diameter of 50-70 μm at the end, controlled by the UMP3I Microsyringe Injector and Micro4 Controller (all from World Precision Instruments Inc., Hertfordshire, UK). Finally, atipamezole (Antisedan) was injected intraperitoneally to reverse the effect of medetomidine and to reduce sedation time.
To analyze the in vivo efficacy of the different compounds, the retina was removed from the dissected posterior segments. These posterior eye cups, which included retinal pigment epithelium (RPE), the choroid and the sclera were stored in phosphate buffered saline (PBS).
To stain for the presence of collagen type 1 (Colla) protein in the laser spots at day 30 after laser, a rabbit anti-collagen antibody (Abcam, 1/270) was used overnight, diluted in Tris-buffered saline (TBS)-Triton 0.5% (v/v) at 4° C. The following day, the tissues were incubated for 2 hours with goat anti rabbit IgG Alexa Fluor 555 (Life Technologies; A-21428), diluted 1/100 in TBS-Triton 0.3% (v/v) at 4° C. The flat mounts of the posterior eye cups were mounted with Prolong Gold with 4′,6-diamidino-2-phenylindole (DAPI, Molecular Probes). Images were obtained using a microscope with a digital camera (Axiocam MrC5; Carl Zeiss, Oberkochen, Germany) at a magnification factor of 20. Morphometric analyses were performed using commercial software (Axiovision; Zeiss, Oberkochen, Germany). The density of collagen deposition was determined by calculating the Colla-positive area as a proportion of the total lesion.
The mouse CNV model as described in Example 2.1 was used. At different time points after lasering, compounds were administered intraperitoneally (IP), or intravitreally (IVT), as indicated in Table 3.

The target in the next assay is T2, human PlGF (Homo sapiens, UniProt P49763).
T2 sequence (P49763 19-131 limits assumed): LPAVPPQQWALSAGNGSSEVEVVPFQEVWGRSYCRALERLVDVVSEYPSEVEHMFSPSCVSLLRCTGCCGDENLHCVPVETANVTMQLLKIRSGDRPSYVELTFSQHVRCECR
Description: Binding of antibody to human PlGF.

B1: 16D3: murine anti-human PlGF-neutralizing antibody, CDRs SEQ ID NOs:1-6; hybridoma deposit LMBP 6399CB (antibody, V domains shown)
VH: QVQLQQSGAELVKPGASVKISCKASGYTFTDYYINWVKLAPGQGLEWIGWIYPGSGNTKYNEKFKGKATLTIDTSSSTAYMQLSSLTSEDTAVYFCVRDSPFFDYWGQGTLLTVSS
VL: DIVLTQSPDSLAVSLGERVTMNCKSSQSLLNSGMRKSFLAWYQQKPGQSPKLLIYWASTRESGVPDRFTGSGSGTDFTLTISSVQAEDVAVYYCKQSYHLFTFGSGTKLEIK
modifications: humanized heavy chain amino acid sequence of neutralizing anti-PlGF antibody; humanized light chain amino acid sequence of neutralizing anti-PlGF antibody
notes: hybridoma deposit LMBP 6399CB
Take B1: the “affinity for murine PlGF relative to human PlGF, in words” value in the assay with murine PlGF was “lower affinity”. Besides, the “effect on collagen deposition / fibrosis, in words” value in the assay with mouse CNV model was “significantly decreased collagen deposition”. Further, the “reduction in collagen deposition (Col1a)” value in the assay with mouse CNV model (IVT D0, 4, 10 and 20) is recorded as 34%. Moreover, the “binding to human PlGF, in words” value with human PlGF is on record as “binds”.
